# From patent US20240400717A1, “Antibody Binding to CHI3L1 for Treating Cancer” (National Cheng Kung University, priority 2021, published 2024)
# B1: 293R3-4: fully human anti-CHI3L1 IgG1 mAb, Table 1 No. 4; heavy chain SEQ ID NO: 73, light chain SEQ ID NO: 74 (antibody, listed as Homo sapiens)
# VH: EVQLVQSGAEVKKPGATVKISCKVSGYSFTDYYIHWVQQAPGKGLEWMGFVDPENGETIYAEKFQGRVTITADTSTDTAYMELSSLRSDDTAVYYCATDRDYDDSSGNAFDIWGQGTMVTVSS
# light: SYELTQPPSVSVSTGQTATITCSGDILGDEYAFWYQQKAGQSPVLVIYLDTRRPSGIPERFSGSNSGDTATLTISETQPVDEAVYFCQGWDSSTALYVFGTGTKVTVLGQPKANPTVTLFPPSSEELQANKATLVCLISDFYPGAVTVAWKADGSPVKAGVETTKPSKQSNNKYAASSYLSLTPEQWKSHRSYSCQVTHEGSTVEKTVAPTECS
# B2: R4-4: fully human anti-CHI3L1 IgG1 mAb, Table 1 No. 9; heavy chain SEQ ID NO: 9, light chain SEQ ID NO: 10 (antibody, listed as Homo sapiens)
# VH: EVQLLESGGGLLQPGGSLRLSCAASGLTFRNYAMTWVRQAPGKGLEWVSTISGNGDETFYADSVKGHFTISRDNSKDTVYLQMNSLRAEDTAVYYCAKGGHYSFFDSWGQGSPVTVSS
# light: NFMLTQPHSVSESPGKTVTISCTRSSGSIASNYVQWYQQRPGSSPTTVIYEDNQRPSGVPDRFSGSIDSSSNSASLTISGLKTEDEADYYCQSYDSSNYVFGTGTKVTVLGQPKANPTVTLFPPSSEELQANKATLVCLISDFYPGAVTVAWKADGSPVKAGVETTKPSKQSNNKYAASSYLSLTPEQWKSHRSYSCQVTHEGSTVEKTVAPAECS
# B3: R4-54: fully human anti-CHI3L1 IgG1 mAb, Table 1 No. 34; heavy chain SEQ ID NO: 33, light chain SEQ ID NO: 34 (antibody, listed as Homo sapiens)
# VH: QVQLVESGGGVVQPGRSLRLSCAASGFTFSSYGMHWVRQAPGKGLEWVAVISYDGSDKDYADSVKGRFTISRDNSKNTLFLQMNSLRAEDTAVYYCARDDYDSTYYFDNWGQGTTVTVSS
# light: SYELTQPPSVSVSPGQTASITCSGDILADQYASWYQQKPGQSPVLVIYHDTKRPSGVPERFSGSTSGNTATLTISGTQAMDEAAYYCQAWDINTAWVFGGGTQLTVLGQPKAAPSVTLFPPSSEELQANKATLVCLISDFYPGAVTVAWKADSSPVKAGVETTTPSKQSNNKYAASSYLSLTPEQWKSHRSYSCQVTHEGSTVEKTVAPTECS
# B4: 293R3-2: fully human anti-CHI3L1 IgG1 mAb, Table 1 No. 2; heavy chain SEQ ID NO: 65, light chain SEQ ID NO: 66 (antibody, listed as Homo sapiens)
# VH: QVQLQESGPGLVEPSGTLSLTCAVSGGSISSSNWWSWVRQHPGKGLEWIGEIYHSGSTNYNPSLRSRVTISVDKSKNQFSLELSSVTAADTAVYYCAGDQRMEDDAFDIWGQGTMVTVSS
# light: QSALTQPASVSGSPGQSITISCTGTSSDVGGYNYVSWYQQHPGKAPKLMIYDVSNRPSGVSNRFSGSKSGNTASLTISGLQAEDEADYYCSSYTSSSTLYVFGTGTKVTVLGQPKANPTVTLFPPSSEELQANKATLVCLISDFYPGAVTVAWKADGSPVKAGVETTKPSKQSNNKYAASSYLSLTPEQWKSHRSYSCQVTHEGSTVEKTVAPTECS
# System: SW480 and SW620 cells
# Assay: rCHI3L1-induced foci formation
# Format: cell-based, human
# Settings: not given
row,Molecule,number of foci
1,B1,decreased in a dose-dependent manner
2,B2,decreased in a dose-dependent manner
3,B3,decreased in a dose-dependent manner
4,B4,decreased in a dose-dependent manner

# System: MiaPaCa cells
# Assay: MiaPaCa orthotopic NOD-SCID mice model
# Settings: 5 mg/kg i.v.
# Protocol: Specifically, experimental design of tumor growth inhibition in vivo. MiaPaCa cells (5×10^6) were injected into pancreas of NOD-SCID mice at Day 0. […] Mice were sacrificed on day 34. […] Since fibrosis and angiogenesis are two major issues during tumor progression, we compared the fibrosis and angiogenesis level within each groups.
row,Molecule,spleen metastasis tumor nodules
1,B2,tumor nodules were obviously smaller

# Same assay, conditions: comparing to IgG control and gemcitabine groups
row,Molecule,fibrosis indicated by α-SMA
1,B2,obviously decrease
2,B3,obviously decrease

# Same assay, conditions: end of experiment
row,Molecule,level of CHI3L1 in intratumoral region and plasma
1,B1,lower than IgG control group
2,B2,lower than IgG control group
3,B3,lower than IgG control group
4,B4,lower than IgG control group

# Same assay, conditions: immunofluorescence, 5 mg/kg i.v.
row,Molecule,"infiltrated macrophages in tumor sections (F4/80+, CD206+)"
1,B1,more macrophages other than M2 phenotype
2,B2,more macrophages other than M2 phenotype
3,B3,more macrophages other than M2 phenotype
4,B4,more macrophages other than M2 phenotype

# Same assay, conditions: mAb 5 mg/kg i.v., gemcitabine 50 mg/kg i.p.
row,Molecule,angiogenesis indicated by CD31 expression
1,B1,decreased in every treatment groups
2,B2,decreased in every treatment groups
3,B3,decreased in every treatment groups
4,B4,decreased in every treatment groups

# Same assay, conditions: mAb 5 mg/kg i.v., gemcitabine 50 mg/kg i.p., Day 7, 14, 21, 28; sacrificed day 34
row,Molecule,tumor size
1,B1,smaller than IgG control group
2,B2,smaller than IgG control group
3,B3,smaller than IgG control group
4,B4,smaller than IgG control group

# System: HCT116 and A549 cells
# Assay: Immunoblot of rCHI3L1-induced AKT and ERK phosphorylation, HCT116 and A549
# Format: cell-based, human
# Settings: HCT116 and A549, time course
# Protocol: The involvement of CHI3L1 in intracellular signaling pathways has been reported. For example, CHI3L1 binding to CD44 activates protein kinase B (AKT) and extracellular signal-regulated kinase (ERK) signaling to promote cancer progression (Chen, Jiang et al. 2021). Thus, we tested whether mAb clones R4-4, R4-54, 293R3-2, and 293R3-4 could attenuate AKT and ERK phosphorylation in human pancreatic (PANC1), colorectal (HCT116), and lung (A549) cancer cell lines. PANC1 cells were treated with rCHI3L1 (100 ng/ml) only or rCHI3L1 with different dose of mAbs as indicated for 20 minutes.
row,Molecule,p-AKT and p-ERK levels induced by rCHI3L1
1,B1,Inhibition of p-AKT and p-ERK
2,B2,Inhibition of p-AKT and p-ERK
3,B3,Inhibition of p-AKT and p-ERK
4,B4,Inhibition of p-AKT and p-ERK

# Biological target: T1, CHI3L1 binding to IL-13Rα2 on A549 cell line (Homo sapiens, UniProt P36222)
# T1 construct: host or cells: A549 cells carry the receptor
# Assay: Functional screen: block of CHI3L1 binding to IL-13Rα2 on A549 cell line
# Format: cell-based
# Settings: A549 cells, compared with CHI3L1 only
# From the text: CHI3L1 is known to associate with different receptors, such as IL-13Rα2 (He et al. 2013), CRTH2 (Zhou et al. 2015), TMEM219 (Lee et al. 2016), and galectin-3 (Zhou et al. 2015). […] Therefore, purified antibody leads were functionally screened for their ability to block CHI3L1 binding to IL-13Rα2 on A549 cell line (FIG. 3A). […] The sequences and defied CDR regions among those monoclonal antibodies are listed and summarized in the sequences list (SEQ ID NOs: 1 to 88) and Table 2, respectively. Anti-CHI3L1 clone R4-2 heavy chain (SEQ ID NO: 1), anti-CHI3L1 clone R4-2 light chain (SEQ ID NO: 2), anti-CHI3L1 clone R4-4 heavy chain (SEQ ID NO: 9), anti-CHI3L1 clone R4-4 light chain (SEQ ID NO: 10), anti-CHI3L1 clone R4-39 heavy chain (SEQ ID NO: 17), anti-CHI3L1 clone R4-39 light chain (SEQ ID NO: 18), anti-CHI3L1 clone R4-53 heavy chain (SEQ ID NO: 25), anti-CHI3L1 clone R4-53 light chain (SEQ ID NO: 26), anti-CHI3L1 clone R4-54 heavy chain (SEQ ID NO: 33), anti-CHI3L1 clone R4-54 light chain (SEQ ID NO: 34), anti-CHI3L1 clone R4-62 heavy chain (SEQ ID NO: 41), anti-CHI3L1 clone R4-62 light chain (SEQ ID NO: 42), anti-CHI3L1 clone R4-63 heavy chain (SEQ ID NO: 49), anti-CHI3L1 clone R4-63 light chain (SEQ ID NO: 50), anti-CHI3L1 clone R4-93 heavy chain (SEQ ID NO: 57), anti-CHI3L1 clone R4-93 light chain (SEQ ID NO: 58), anti-CHI3L1 clone 293R3-2 heavy chain (SEQ ID NO: 65), anti-CHI3L1 clone 293R3-2 light chain (SEQ ID NO: 66), anti-CHI3L1 clone 293R3-4 heavy chain (SEQ ID NO: 73), anti-CHI3L1 clone 293R3-4 light chain (SEQ ID NO: 74), anti-CHI3L1 clone 293R3-5 heavy chain (SEQ ID NO: 81), and anti-CHI3L1 clone 293R3-5 light chain (SEQ ID NO: 82) are shown in sequence listing.
# T1 sequence (P36222 22-383): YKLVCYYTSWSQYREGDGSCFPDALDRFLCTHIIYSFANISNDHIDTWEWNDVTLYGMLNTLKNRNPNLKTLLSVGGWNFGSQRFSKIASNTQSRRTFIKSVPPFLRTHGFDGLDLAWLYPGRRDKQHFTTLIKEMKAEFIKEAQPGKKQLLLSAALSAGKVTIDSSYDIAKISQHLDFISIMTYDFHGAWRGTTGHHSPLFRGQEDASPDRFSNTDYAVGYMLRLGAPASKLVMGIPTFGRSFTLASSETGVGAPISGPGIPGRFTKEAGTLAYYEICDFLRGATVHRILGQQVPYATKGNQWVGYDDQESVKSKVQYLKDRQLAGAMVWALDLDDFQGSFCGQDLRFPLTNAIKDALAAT
row,CHI3L1 neutralizing activity,Molecule
1,best neutralizing activity,B1
2,best neutralizing activity,B3
3,best neutralizing activity,B4

# Biological target: T2, hCHI3L1/flag-His (Homo sapiens, UniProt P36222)
# T2 construct: human CHI3L1 extracellular domain fused with flag and His tag
# Assay: ForteBio biolayer interferometry binding analysis
# Settings: not given
# Protocol: Anti-CHI3L1 mAbs were loaded at 5 μg/mL on AHC (Anti-Human IgG Fc Capture, ForteBio, Cat #18-5060) for signal reach to approximate 0.5 nm. Sensors then were exposed to human CHI3L1 extracellular domain fused with flag and His tag recombinant protein, hCHI3L1/flag-His, solutions at 10 nM with 2 time serial dilution for 7 concentrations. Measurement were performed as follows: 1 min baseline in kinetic buffer, 5 minute association in 7 different concentrations hCHI3L1/flag-His and 5 minute dissociation into kinetic buffer. The kinetic parameters were calculated and produced by Octet Data Acquisition and Analysis Software.
# T2 sequence (P36222 22-383): as above
row,binding kinetics profile compare to other mAbs,Molecule
1,slower on-rate (kon) and off-rate (koff),B2

# Same assay, conditions: mAb loaded on AHC sensor, analyte hCHI3L1
koff,kon,Molecule
0.00722 s⁻¹,1.83e+06 M⁻¹ s⁻¹,B1
0.000353 s⁻¹,–,B2
0.0065 s⁻¹,1.54e+06 M⁻¹ s⁻¹,B3
0.00302 s⁻¹,1.08e+06 M⁻¹ s⁻¹,B4

# Biological target: recombinant CHI3L1 protein (Homo sapiens, UniProt P36222)
# Assay: ELISA binding specificity, CHI3L1
# Settings: mAbs 1 μg/ml; coated protein 2.5 μg/ml to 0 μg/ml
# Protocol: (§1) Four selected clones of mAbs including R4-4, R4-54, 293R3-2, and 293R3-4 were further tested for blocking effect on human colorectal (HCT116, SW480, and SW620) and pancreatic cancer cell lines (PANC1 and MiaPaCa-2). […] P values were determined by one-way ANOVA. * P<0.05, ** P<0.01, *** P<0.001, **** P<0.0001. For binding specificity examination, we further coated different concentration of recombinant CHI3L1 protein, and two other major proteins in chitinase family including human chitotriosidase-1 (CHIT1) and CHI3L2 from 2.5 μg/ml to 0 μg/ml, on 96-well plate.
# recombinant CHI3L1 protein, sequence (P36222 22-383): as above
row,binding specificity: recognition of CHI3L1,Molecule
1,specifically recognized CHI3L1,B1
2,specifically recognized CHI3L1,B2
3,specifically recognized CHI3L1,B3
4,specifically recognized CHI3L1,B4

# Biological target: human chitotriosidase-1 (CHIT1) (Homo sapiens, UniProt Q13231)
# Assay: ELISA binding specificity, CHIT1
# Settings: mAbs 1 μg/ml; coated protein 2.5 μg/ml to 0 μg/ml
# Protocol: as §1
# human chitotriosidase-1 (CHIT1), sequence (Q13231 22-466): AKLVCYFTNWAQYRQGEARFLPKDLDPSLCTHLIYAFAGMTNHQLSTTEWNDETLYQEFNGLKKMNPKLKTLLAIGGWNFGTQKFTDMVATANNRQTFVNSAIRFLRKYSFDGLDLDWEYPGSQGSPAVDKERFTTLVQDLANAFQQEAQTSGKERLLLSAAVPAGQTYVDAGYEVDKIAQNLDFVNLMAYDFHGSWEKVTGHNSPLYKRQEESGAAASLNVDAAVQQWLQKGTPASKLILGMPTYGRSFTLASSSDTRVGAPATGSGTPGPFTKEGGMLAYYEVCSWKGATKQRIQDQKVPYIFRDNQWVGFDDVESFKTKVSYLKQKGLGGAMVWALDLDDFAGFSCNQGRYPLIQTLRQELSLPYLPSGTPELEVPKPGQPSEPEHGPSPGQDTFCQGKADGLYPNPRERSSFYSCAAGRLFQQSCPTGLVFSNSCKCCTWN
row,binding specificity: recognition of CHIT1,Molecule
1,no other chitinase proteins,B1
2,no other chitinase proteins,B2
3,no other chitinase proteins,B3
4,no other chitinase proteins,B4
